Test results as given in the supplement of paper PMC9170038.

Test system: MS2 coat protein
Test: apparent KD of MS2 coat protein; designed switch direction (-1 OFF switch, 1 ON switch): -1; higher = weaker reporter binding
Procedure, shortened: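 Apparent KD, taken as the median over clusters for each design, was obtained by curve-fitting normalised cluster fluorescence. Designed RNA switches had been transcribed on Illumina chips by stalled E. coli RNA polymerase and titrated with SNAP-549-labelled MS2 coat protein, doubling from 0.7 or 1.5 nM to 3 µM.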

[1] = Eterna round: R95, input ligand: microRNA oligo, concentration not stated
[2] = input ligand: microRNA oligo, concentration not stated
[3] = Eterna round: R95, input ligand: FMN 200 uM
[4] = Eterna round: R95, input ligand: none

Row | Sequence | apparent KD of MS2 coat protein [1] [nM] | apparent KD of MS2 coat protein (input ligand: FMN 200 uM) [nM] | apparent KD of MS2 coat protein (input ligand: none) [nM] | other results
1 | GUAGAGUAAGGAUAUACUGAAUAGGAUAGAAUGGUUAGAAAGUAGAAGGUACAUGAGGAUCACCCAUGUAAUGU [Excluse me!!!! 19 - Jieux - Exclusion 4] (puzzle: Exclusion 4) | 20.4 | – | – | –
2 | CUAGUAUAUCAGGAUAUGAUAUUGUGUAGUAAAUCAGAAGGGAUGACAUGAGGAUCACCCAUGUUAAGGGAUGA [JR_Ex6_Sub047] (Eterna round: R97, puzzle: Exclusion 6) | – | 41.4 | 54.3 | –
3 | UUUGUUUAUGUAGGAUAUGCCUGGCGUGCCUUCGCAGAAGGACAUGAGGAUCACCCAUGUAUUGCGGUCUGCGUUCAGAUCGCA [salish99_ExNG1_r4_031] (Eterna round: R96, puzzle: Exclusion NG 1) | – | 72.6 | 42.5 | apparent KD of MS2 coat protein [2]: 30 nM
4 | UUUUUUUUGCGAGGAUAUGCUUUUAGUUAGUUAGCAGAAGGCGCGUUUCUUUUCUCCUCUUCUUACAUGAGGAUCACCCAUGUU [JR_ExcNG1_Sub034] (Eterna round: R96, puzzle: Exclusion NG 1) | – | 55.7 | 54.1 | apparent KD of MS2 coat protein [2]: 36.7 nM
5 | CCAAGCUUUUUCAUUAACAACAUGAGGAUCACCCAUGUUUAAGCUAUUACUUUUGGGCUCUUUAGUGCUCGUCUUAU [JR_STOV1_Sub040] (Eterna round: R97, puzzle: Sensor, turn-off variant 1) | – | 14.4 | 13.9 | –
6 | CAUGAUUGGGAAGGAUAUUGACCUAGUUAGCGCCGAGAAGGUCCCUGUCACAUGAGGAUCACCCAUGUGAAUCUGGUGAAAGAG [Ex NG1 #93] (Eterna round: R96, puzzle: Exclusion NG 1) | – | 26.1 | 22.9 | apparent KD of MS2 coat protein [2]: 16.6 nM
7 | GGCCUACGAGGAUAUCGCUAGCGGGACAUGAGGAUCACCCAUGUGUCGGACCGCGUCAUGCGAGAAGGUGUAAUGA [Ribeceve] (puzzle: Exclusion 5) | 14.9 | – | – | –
8 | GUGGUACAUGAGGAUCACCCAUGUUAGGAUAUCGCGUGAGGUUUUACUUCCGCGCGCGCGAGAAGGGACGUCUU (puzzle: Exclusion 1) | 23.3 | – | – | –
9 | UCCAUGUCAGGAUAUCCUAGCGCAAAGUUGCCCGCGCUGCUGGAGAAGGGACAUGAGGAUCACCCAUGUCUACA [EX4 C.10] (Eterna round: R97, puzzle: Exclusion 4) | – | 76.8 | 23.2 | –
10 | GAAACCAGAGGAUAUGCGAAUAAAUAAAACUUUUUUUUUUAACAUGAGGAUCACCCAUGUAGAAGGCUGCAAAG [Ex2 #35] (Eterna round: R97, puzzle: Exclusion 2) | – | 32 | 31 | –
11 | AAGAAACAUGAGGAUCACCCAUGUGAGGAUAUGACAAAGAAAAGAAAAGAAAGAAGAAUCAGAAGGCACAAAGG [salish99-ex1_r3_033] (puzzle: Exclusion 1) | 83.1 | – | – | apparent KD of MS2 coat protein [3]: 121 nM; apparent KD of MS2 coat protein [4]: 96.6 nM
12 | CCUUAUUCACAGGAUAUGCUCAUCUAAUGAUGAGCAGAAGGGUGGACAUGAGGAUCACCCAUGUUUAUCAAUGG [Omei Ex6 D5] (Eterna round: R97, puzzle: Exclusion 6) | – | 545 | 749 | –
13 | AGAGUGUGAGGAUAUAUGGUGAAGAUGAAGGGAUAGAAGGAGUAGAAGGUACAUGAGGAUCACCCAUGUUAGGA [JR_Exclu4_Sub076] (puzzle: Exclusion 4) | 23.1 | – | – | –
14 | AGCAUCUGAGGAUAUACUGGGUAUGGAAGGCGAAGGGCCAGACAUGAGGAUCACCCAUGUAGAAGGCAGUUUGC [Esenonan] (Eterna round: R96, puzzle: Exclusion 2) | – | 39.2 | 65.4 | apparent KD of MS2 coat protein [2]: 42 nM
15 | GGCACACAUGAGGAUCACCCAUGUGAGGAUAUGGUGCGAUCGUCGAUAGACGAUAGCACCAGAAGGCACAUGCC [Mat - Exclusion 1 - Eli Mod - D5] (Eterna round: R97, puzzle: Exclusion 1) | – | 33.6 | 15.4 | –
16 | GCAUGAUACUAGGAUAUCAGCAUACUUCAAUGUUGAGAAGGAGUAACAUGAGGAUCACCCAUGUAUCCAACAUG [Exclusion 6 - 4:a] (puzzle: Exclusion 6) | 38.5 | – | – | –
17 | GAUUAUGCGAGCUUUAGGGACAUGAGGAUCACCCAUGUUCGUCUUAUUGGUCUGGGUACGCUAACAUACCUAAAUCU [JMF 5] (puzzle: Sensor v3, turn-off variant 1) | 46.7 | – | – | apparent KD of MS2 coat protein [3]: 34.3 nM; apparent KD of MS2 coat protein [4]: 37.2 nM
18 | CCUCUGUAAGGAUAUACGGAGACCACUGGAAUCAGUGGAAAGUAGAAGGUACAUGAGGAUCACCCAUGUGAGAA [Laveatisce] (puzzle: Exclusion 4) | 36.2 | – | – | apparent KD of MS2 coat protein [3]: 36.5 nM; apparent KD of MS2 coat protein [4]: 49.3 nM

Row | Sequence | apparent KD of MS2 coat protein [1] [nM] | apparent KD of MS2 coat protein (input ligand: FMN 200 uM) [nM] | apparent KD of MS2 coat protein (input ligand: none) [nM] | other results
19 | ACUUACUGAGGAUAUACAUAGAUUUACAUGAGGAUCACCCAUGUUCCUCUAUGUAUAUAUGUAGAAGGCAGAAGAG [Mat - Exclusion 5 - JL Mod - D35] (Eterna round: R97, puzzle: Exclusion 5) | – | 56.3 | 21.6 | –
20 | UUUUUACAUGAGGAUCACCCAUGUGAGGAUAUGGAGCGCGACCGCGCGGUCGCGUACACCAGAAGGCGCAGGAA [1st #75] (Eterna round: R97, puzzle: Exclusion 1) | – | 30.6 | 24.9 | –
21 | UACAUGAGGAUCACCCAUGUUUUGUCGUGUAUGGUAUUUAUCUAGGAUAUCAAUUGAUUUAUUCAUGAGAAGGAGAAUAUUAAU [JMF's solution 64] (Eterna round: R96, puzzle: Exclusion NG 3) | – | 34.1 | 39.8 | apparent KD of MS2 coat protein [2]: 31.4 nM
22 | UGAGCAAGAGGAUAUACAUGACGUGCCGUAGCACGAGGUCUACAUGAGGAUCACCCAUGUAGAAGGCUUGUUCU [Mat - Exclusion 2 - JL Mod - D5] (Eterna round: R97, puzzle: Exclusion 2) | – | 170 | 34.2 | –
23 | CAUACAGUAGUCAGGAUAUUGCAACACACACGGAACGAGAAGGGACAUGAGGAUCACCCAUGUAUACUGUAAAG [EX-4 Malc #5] (puzzle: Brourd's mod of Exclusion 4) | 21 | – | – | apparent KD of MS2 coat protein [3]: 16 nM; apparent KD of MS2 coat protein [4]: 24.7 nM
24 | GGUCCACAUGAGGAUCACCCAUGUUAGGAUAUCUCCCGCCUCCUCACUGGAGACGGACAGAGAAGGAACAUCAA [Vetibele] (Eterna round: R96, puzzle: Exclusion 1) | – | 104 | 24.3 | apparent KD of MS2 coat protein [2]: 20.5 nM
25 | CUUUUGUGAGGAUAUGGUAACGUUUACAUGAGGAUCACCCAUGUUUCAUGGGACUUGAGACUAGAAGGCACUAACG [JR_Ex5_Sub027] (Eterna round: R97, puzzle: Exclusion 5) | – | 516 | 823 | –
26 | UUCUUACGAGGAUAUCGAUGGUGGAACAUGAGGAUCACCCAUGUAUGAGAUAUUGUAUUUCGAGAAGGCGUUCAGU [JR_E5_Sub058] (puzzle: Exclusion 5) | 51.6 | – | – | –
27 | CUCUAGUCAGGAUAUUAGUUGCCGCCUGGCAACAGGCGGCAUGAGAAGGGACUUGAGGAUCACCCAAGUAAAAG [Rabebete] (Eterna round: R97, puzzle: Exclusion 4) | – | 66.1 | 368 | –
28 | GAGUGACAUGAGGAUCACCCAUGUGAGGAUAUCCGAUGGACCAAAUUAACAAUAGAAGGGAGAAGGCGCAUAAA [Exclusion 1 V8] (puzzle: Exclusion 1) | 152 | – | – | apparent KD of MS2 coat protein [3]: 133 nM; apparent KD of MS2 coat protein [4]: 158 nM
29 | UUCAUGUGAGGAUAUAGUACUUCUUCUAUUAUUAUUGAGUACUAGAAGGCACAUGAGGAUCACCCAUGUAGUAC [Ex4 - 3 - 43] (puzzle: Exclusion 4) | 39.1 | – | – | –
30 | GGAAGGAGAGGAUAUGAGGGAGAGAACAUGAGGAUCACCCAUGUGAGACCUCAGGAUCGAUCAGAAGGCUCAGUCC [AK-MS2ROC-r4-exclusion5-12] (Eterna round: R97, puzzle: Exclusion 5) | – | 692 | 232 | –
31 | CAGUACUGAGGAUAUACAUGAGGAUCACCCAUGUGCUUUAGCUAGGAUACUAGCAUUAGUAGAAGGCAGUACUG [Fiskers Ex 3 828 mod 9] (puzzle: Exclusion 3) | 11.3 | – | – | –
32 | AUUUAGCAAGCGUGAUCCUACAUGAGGAUCACCCAUGUAGUUCGUCUUAUUUGAAGACAACACAAAAGUGUUGUCUU [Omei Mir OFFv1 B8] (Eterna round: R97, puzzle: Sensor, turn-off variant 1) | – | 355 | 212 | –
33 | GGAGCAAUGGAGGAUAUCAGGAGCGCUGCUUACUGAGAAGGCCGUACAUGAGGAUCACCCAUGUCUGGGUACGC [Eternabot (L1) Solution 21] (Eterna round: R97, puzzle: Exclusion 6) | – | 176 | 167 | –
34 | CGGUAACAUGAGGAUCACCCAUGUGAGGAUAUCGUACGUUCGUCGAUAGACGAUCGUACGAGAAGGCAUGACCG [Mat - Exclusion 1 - Eli Mod - D33] (Eterna round: R97, puzzle: Exclusion 1) | – | 21.4 | 43.9 | –
35 | UGUCCAAUACAGGAUAUUCUCGCGUAGUAGCAAGGAGAAGGGUAGACAUGAGGAUCACCCAUGUGAUUCAUCUG [Eternabot (L2) Solution 68] (Eterna round: R97, puzzle: Exclusion 6) | – | 438 | 575 | –
36 | AGGUCACAUGAGGAUCACCCAUGUGAGGAUAUAGACUCAAGAGCUUCGGCUCUCAAGUUUAGAAGGCGCAAUGA [EX1 #52] (Eterna round: R97, puzzle: Exclusion 1) | – | 31.7 | 31.2 | –
